PMC6416349

Columns and labels:
Assay in all cases: SPR; Biacore 3000, 25 °C; fungal protein immobilised on a CM5 chip by amine coupling (300 RU Eno1 and Mp65, 360 RU Als3); RgpA 10-100 nM injected at 20 µl/min; 10 mM HEPES, 150 mM NaCl, 0.005% surfactant, pH 7.4; global fit, 1:1 Langmuir model with baseline drift
[1] = molecular target: C. albicans agglutinin-like sequence protein 3 (Als3), isolated from the hyphal cell wall (C. albicans) (UniProt Q59L12)
[2] = molecular target: C. albicans cell wall mannoprotein 65 (Mp65) (C. albicans) (UniProt Q59XX2)
UniProt Q59XX2, sequence (Q59XX2 33-378): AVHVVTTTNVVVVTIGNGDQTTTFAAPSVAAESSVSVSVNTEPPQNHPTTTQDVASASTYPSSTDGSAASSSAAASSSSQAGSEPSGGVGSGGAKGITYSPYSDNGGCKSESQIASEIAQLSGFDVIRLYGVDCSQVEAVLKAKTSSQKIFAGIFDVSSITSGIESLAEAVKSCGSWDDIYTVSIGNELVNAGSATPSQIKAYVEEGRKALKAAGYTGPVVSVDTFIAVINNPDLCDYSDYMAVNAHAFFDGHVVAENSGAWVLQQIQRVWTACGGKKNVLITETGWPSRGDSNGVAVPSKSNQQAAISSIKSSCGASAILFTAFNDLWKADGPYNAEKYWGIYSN

[3] = molecular target: C. albicans enolase 1 (Eno1) (C. albicans) (UniProt P30575)
UniProt P30575, sequence (P30575 whole entry): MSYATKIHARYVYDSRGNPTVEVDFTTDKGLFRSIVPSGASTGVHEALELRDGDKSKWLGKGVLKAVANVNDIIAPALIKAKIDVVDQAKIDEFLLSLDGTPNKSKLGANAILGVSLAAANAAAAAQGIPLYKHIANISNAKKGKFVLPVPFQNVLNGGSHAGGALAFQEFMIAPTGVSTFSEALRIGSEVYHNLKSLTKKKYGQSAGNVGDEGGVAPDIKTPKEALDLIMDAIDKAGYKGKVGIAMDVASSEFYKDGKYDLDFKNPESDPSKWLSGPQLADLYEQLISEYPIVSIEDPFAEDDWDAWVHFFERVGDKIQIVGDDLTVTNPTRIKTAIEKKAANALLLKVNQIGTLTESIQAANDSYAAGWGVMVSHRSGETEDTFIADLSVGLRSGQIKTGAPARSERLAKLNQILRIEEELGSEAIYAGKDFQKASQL

UniProt Q59L12, sequence (Q59L12 18-1134): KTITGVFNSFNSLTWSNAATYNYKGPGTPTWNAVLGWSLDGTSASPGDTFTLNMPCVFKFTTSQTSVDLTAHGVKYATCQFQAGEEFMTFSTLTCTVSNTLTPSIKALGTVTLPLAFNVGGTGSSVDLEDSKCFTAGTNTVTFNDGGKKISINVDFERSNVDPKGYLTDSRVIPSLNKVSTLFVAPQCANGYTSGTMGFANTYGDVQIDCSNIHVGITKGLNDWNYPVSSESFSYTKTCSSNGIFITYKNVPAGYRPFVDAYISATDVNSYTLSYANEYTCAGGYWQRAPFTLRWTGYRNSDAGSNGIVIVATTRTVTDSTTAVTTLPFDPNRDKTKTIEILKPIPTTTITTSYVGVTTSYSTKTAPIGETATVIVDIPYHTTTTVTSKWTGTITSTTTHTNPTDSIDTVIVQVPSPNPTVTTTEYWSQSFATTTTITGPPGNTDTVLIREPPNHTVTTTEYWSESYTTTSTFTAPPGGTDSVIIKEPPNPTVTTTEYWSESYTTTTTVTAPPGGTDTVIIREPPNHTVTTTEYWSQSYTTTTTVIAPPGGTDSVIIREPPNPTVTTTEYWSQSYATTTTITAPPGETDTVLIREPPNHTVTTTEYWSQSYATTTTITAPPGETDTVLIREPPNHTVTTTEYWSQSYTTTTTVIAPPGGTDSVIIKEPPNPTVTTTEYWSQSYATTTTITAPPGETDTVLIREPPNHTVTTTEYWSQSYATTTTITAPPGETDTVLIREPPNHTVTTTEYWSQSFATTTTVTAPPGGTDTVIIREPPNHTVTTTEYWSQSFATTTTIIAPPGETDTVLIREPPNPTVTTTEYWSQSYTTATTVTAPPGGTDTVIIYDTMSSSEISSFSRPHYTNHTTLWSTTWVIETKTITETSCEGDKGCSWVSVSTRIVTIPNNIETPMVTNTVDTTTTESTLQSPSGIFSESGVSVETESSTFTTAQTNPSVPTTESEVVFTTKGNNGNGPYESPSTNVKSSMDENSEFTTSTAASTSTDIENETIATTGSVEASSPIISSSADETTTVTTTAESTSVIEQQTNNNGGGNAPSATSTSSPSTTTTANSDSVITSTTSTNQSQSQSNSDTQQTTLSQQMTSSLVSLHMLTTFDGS

P. gingivalis gingipain RgpA (HRgpA) (from UniProt P28784 228-991) (enzyme)
Kd [1]: 9.96 nM | Kd [2]: 9.44 nM | Kd [3]: 2.97 nM
